# From US20240279318A1 (NANJING LEGEND BIOTECH, published 2024)
# Changes are numbered by the printed parent chain.
# B1: AS170036 VL1VH1 HG108Y (scFv)
# scFv: QSALTQPRSVSGSPGQSVTISCAGTSSDVGSENYVSWYQQHPGKAPKLMIYQVNKRASGVPDRFSGSKSGNTASLTISGLQAEDEADYYCASYRSSDHNIVFGGGTKLTVLGGGGSGGGGSGGGGSEVQLVESGGGLVQPGGSLRLSCAASGFTFSSYAMSWVRQAPGKGLEWVSTINSGTGSPYYADSVKGRFTISRDNSKNTLYLQMNSLRAEDTAVYYCAKNFFDGSWFLYPPAMDYWGQGTLVTVSSHHHHHH
# B2: AS170036 VL1VH1 HP58N (scFv)
# scFv: B1 scFv with P184N, Y234G
# B3: AS170036 VL1VH1 HP109N (scFv)
# scFv: B1 scFv with Y234G, P235N
# B4: AS170036 VL1VH1 HP58H (scFv)
# scFv: B1 scFv with P184H, Y234G
# B5: AS170036 VL1VH1 HP110N (scFv)
# scFv: B1 scFv with Y234G, P236N
# B6: AS170036 VL1VH1 HS57T (scFv)
# scFv: B1 scFv with S183T, Y234G
# B7: AS170036 VL1VH1 HL107I (scFv)
# scFv: B1 scFv with L233I, Y234G
# B8: AS170036 VL1VH1 HS57F (scFv)
# scFv: B1 scFv with S183F, Y234G
# B9: AS170036 VL1VH1 HP109A (scFv)
# scFv: B1 scFv with Y234G, P235A
# B10: AS170036 VL1VH1 HL107M (scFv)
# scFv: B1 scFv with L233M, Y234G
# B11: AS170036 VL1VH1 HP110A (scFv)
# scFv: B1 scFv with Y234G, P236A
# B12: AS170036 VL1VH1 HS57N (scFv)
# scFv: B1 scFv with S183N, Y234G
# B13: AS170036 VL1VH1 HS57W (scFv)
# scFv: B1 scFv with S183W, Y234G
# B14: AS170036 VL1VH1 HP110S (scFv)
# scFv: B1 scFv with Y234G, P236S
# B15: AS170036 VL1VH1 HP58Y (scFv)
# scFv: B1 scFv with P184Y, Y234G
# B16: AS170036 VL1VH1 HP58G (scFv)
# scFv: B1 scFv with P184G, Y234G
# B17: AS170036 VL1VH1 HL107T (scFv)
# scFv: B1 scFv with L233T, Y234G
# B18: AS170036 VL1VH1 HL107Q (scFv)
# scFv: B1 scFv with L233Q, Y234G
# B19: AS170036 VL1VH1 HP58K (scFv)
# scFv: B1 scFv with P184K, Y234G
# B20: AS170036 VL1VH1 HP110I (scFv)
# scFv: B1 scFv with Y234G, P236I
# B21: AS170036 VL1VH1 HP58Q (scFv)
# scFv: B1 scFv with P184Q, Y234G
# B22: AS170036 VL1VH1 HP58S (scFv)
# scFv: B1 scFv with P184S, Y234G
# B23: AS170036 VL1VH1 HL107V (scFv)
# scFv: B1 scFv with L233V, Y234G
# B24: AS170036 VL1VH1 HL107G (scFv)
# scFv: B1 scFv with L233G, Y234G
# B25: AS170036 VL1VH1 HP110G (scFv)
# scFv: B1 scFv with Y234G, P236G
# B26: AS170036 VL1VH1 HP58F (scFv)
# scFv: B1 scFv with P184F, Y234G
# B27: AS170036 VL1VH1 HW105F (scFv)
# scFv: B1 scFv with W231F, Y234G
# B28: AS170036 VL1VH1 HS57Y (scFv)
# scFv: B1 scFv with S183Y, Y234G
# B29: AS170036 VL1VH1 HP110D (scFv)
# scFv: B1 scFv with Y234G, P236D
# B30: AS170036 VL1VH1 HP58M (scFv)
# scFv: B1 scFv with P184M, Y234G
# B31: AS170036 VL1VH1 HL107A (scFv)
# scFv: B1 scFv with L233A, Y234G
# B32: AS170036 VL1VH1 HS57D (scFv)
# scFv: B1 scFv with S183D, Y234G
# B33: AS170036 VL1VH1 HP109T (scFv)
# scFv: B1 scFv with Y234G, P235T
# B34: AS170036 VL1VH1 HP58D (scFv)
# scFv: B1 scFv with P184D, Y234G
# B35: AS170036 VL1VH1 HP58T (scFv)
# scFv: B1 scFv with P184T, Y234G
# B36: AS170036 VL1VH1 HP58V (scFv)
# scFv: B1 scFv with P184V, Y234G
# B37: AS170036 VL1VH1 HS53A (scFv)
# scFv: B1 scFv with S179A, Y234G
# B38: AS170036 VL1VH1 HP110T (scFv)
# scFv: B1 scFv with Y234G, P236T
# B39: AS170036 VL1VH1 HP110V (scFv)
# scFv: B1 scFv with Y234G, P236V
# B40: AS170036 VL1VH1 HS53T (scFv)
# scFv: B1 scFv with S179T, Y234G
# B41: AS170036 VL1VH1 HW105M (scFv)
# scFv: B1 scFv with W231M, Y234G
# B42: AS170036 VL1VH1 HP58A (scFv)
# scFv: B1 scFv with P184A, Y234G
# B43: AS170036 VL1VH1 HP58R (scFv)
# scFv: B1 scFv with P184R, Y234G
# B44: AS170036 VL1VH1 HP110E (scFv)
# scFv: B1 scFv with Y234G, P236E
# B45: AS170036 VL1VH1 HS57A (scFv)
# scFv: B1 scFv with S183A, Y234G
# B46: AS170036 VL1VH1 HP58W (scFv)
# scFv: B1 scFv with P184W, Y234G
# B47: AS170036 VL1VH1 HP58E (scFv)
# scFv: B1 scFv with P184E, Y234G
# B48: AS170036 VL1VH1 HP110Q (scFv)
# scFv: B1 scFv with Y234G, P236Q
# B49: AS170036 VL1VH1 HP110L (scFv)
# scFv: B1 scFv with Y234G, P236L
# B50: AS170036 VL1VH1 HL107S (scFv)
# scFv: B1 scFv with L233S, Y234G
# B51: AS170036 VL1VH1 HL107N (scFv)
# scFv: B1 scFv with L233N, Y234G
# Target: T1, AFP158/HLA-A*02:01 complex (human)
# T1 construct: biotinylated on the BSP by BirA for ELISA and panning; also called biotinylated AFP158/HLA-A*02:01 complex; Bio-AFP158
# Test: SPR, crude scFv captured;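 further: Peptide–MHC complex flowed at several concentrations over sensorchip-captured scFv, Kd derived from on- and off-rates obtained from the association and dissociation curves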
row,Kd,Binder
1,1100 nM,B1
2,1500 nM,B2
3,4500 nM,B3
4,1000 nM,B4
5,1200 nM,B5
6,220 nM,B6
7,240 nM,B7
8,180 nM,B8
9,2700 nM,B9
10,370 nM,B10
11,210 nM,B11
12,170 nM,B12
13,380 nM,B13
14,300 nM,B14
15,3500 nM,B15
16,320 nM,B16
17,2800 nM,B17
18,1600 nM,B18
19,860 nM,B19
20,1500 nM,B20
21,500 nM,B21
22,780 nM,B22
23,2500 nM,B23
24,4400 nM,B24
25,260 nM,B25
26,1700 nM,B26

row,Kd,Binder
1,1400 nM,B27
2,200 nM,B28
3,540 nM,B29
4,1500 nM,B30
5,3300 nM,B31
6,200 nM,B32
7,5400 nM,B33
8,660 nM,B34
9,750 nM,B35
10,1200 nM,B36
11,1200 nM,B37
12,180 nM,B38
13,400 nM,B39
14,650 nM,B40
15,1200 nM,B41
16,380 nM,B42
17,1200 nM,B43
18,150 nM,B44
19,210 nM,B45
20,2700 nM,B46
21,600 nM,B47
22,300 nM,B48
23,1500 nM,B49
24,4100 nM,B50
25,530 nM,B51

# Target: T1, AFP158/HLA-A*02:01 complex
# Test: SPR; vs AS170036 VL1VH1;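 further: crude scFv captured on sensor chip, peptide–HLA complex flowed over at several concentrations, KD estimated from association and dissociation kinetic rates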
row,Affinity increase,Binder
1,0.2 fold,B1
2,0.2 fold,B2
3,0.1 fold,B3
4,0.3 fold,B4
5,0.2 fold,B5
6,1.1 fold,B6
7,1.1 fold,B7
8,1.4 fold,B8
9,0.1 fold,B9
10,0.7 fold,B10
11,1.3 fold,B11
12,1.5 fold,B12
13,0.6 fold,B13
14,0.8 fold,B14
15,0.1 fold,B15
16,0.9 fold,B16
17,0.1 fold,B17
18,0.2 fold,B18
19,0.3 fold,B19
20,0.2 fold,B20
21,0.5 fold,B21
22,0.3 fold,B22
23,0.1 fold,B23
24,0.1 fold,B24
25,1 fold,B25
26,0.2 fold,B26

row,Affinity increase,Binder
1,0.2 fold,B27
2,1.2 fold,B28
3,0.5 fold,B29
4,0.2 fold,B30
5,0.1 fold,B31
6,1.2 fold,B32
7,0.1 fold,B33
8,0.4 fold,B34
9,0.4 fold,B35
10,0.2 fold,B36
11,0.2 fold,B37
12,1.3 fold,B38
13,0.6 fold,B39
14,0.4 fold,B40
15,0.2 fold,B41
16,0.7 fold,B42
17,0.2 fold,B43
18,1.8 fold,B44
19,1.2 fold,B45
20,0.1 fold,B46
21,0.5 fold,B47
22,0.9 fold,B48
23,0.2 fold,B49
24,0.1 fold,B50
25,0.5 fold,B51
